According to patent US20060251644A1 (TANOX, published 2006):

Target: T1, recombinant human IgE, SE44 (human, UniProt P01854-1 1-428)
T1 construct: also called monoclonal human IgE (SE44); biotinylated SE44
Assay: ELISA titration on plate-coated SE44 (human IgE); Fab detected with biotin-sheep anti-human Fd and Neutra-avidin-AP (Example 6)
Protocol: Coating solution was removed and the plates were blocked with 200 uL/well 3% BSA/PBS for 1 hour at 37° C.
The plates were washed 4× with PBS/0.1% TWEEN® (PBST). 50 uL/well Fab (from 15 mL periplasmic prep) was added starting with a dilution of 1:2 and diluting 3 fold serially in 0.5% BSA/PBS and 0.05% TWEEN®20. Plates were incubated for 2 hours at room temperature.

T1 sequence (P01854 other isoform, or with tags, fused parts or gaps): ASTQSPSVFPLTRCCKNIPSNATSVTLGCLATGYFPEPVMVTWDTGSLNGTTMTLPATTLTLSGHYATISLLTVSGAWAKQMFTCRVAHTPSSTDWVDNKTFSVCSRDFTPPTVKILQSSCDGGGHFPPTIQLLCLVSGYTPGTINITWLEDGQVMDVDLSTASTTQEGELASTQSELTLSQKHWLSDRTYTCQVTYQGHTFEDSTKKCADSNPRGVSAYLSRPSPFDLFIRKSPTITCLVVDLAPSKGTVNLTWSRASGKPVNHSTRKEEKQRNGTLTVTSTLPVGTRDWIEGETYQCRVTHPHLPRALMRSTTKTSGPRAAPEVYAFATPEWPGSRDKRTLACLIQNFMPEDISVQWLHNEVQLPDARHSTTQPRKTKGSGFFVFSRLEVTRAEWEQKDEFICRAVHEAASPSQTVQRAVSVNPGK

B1: humanized Fab clone 136 (Fab, V domains shown)
VH: QVQLVQSGAEVMKPGSSVKVSCKASGYTFSMYWLEWVRQAPGHGLEWMGEISPGTFTTNYNEKFKARVTFTADTSTSTAYMELSSLRSEDTAVYYCARFSHFSGSNYDYFDYWGQGTLVTVSS
VL: EIVMTQSPATLSVSPGERATLSCRASQSIGTNIHWYQQKPGQAPRLLIYYASESISGIPARFSGSGSGTEFTLTISSLQSEDFAVYYCQQSDSWPTTFGGGTKVEIK
notes: Retains 5 murine heavy chain framework residues; 100% human light chain framework; also called Clone ID #136; Humanized clone 136
- EC50 (read off the curve): ~0.03 µg/mL
